The values that follow come from paper PMC9972960.

Assay [1] addresses purified vaccine protein with HA from influenza A/PR/8/1934 (H1N1), with the C-terminal foldon trimerization domain (influenza A/PR/8/1934 (H1N1) | T4 phage) (UniProt P03452). As to the kind of experiment: SEC. (In general: SEC sorts molecules by how far they enter the pores of the column.)
Assay [2] shares this target. Kind of assay: native gel or EMSA. (In general: In EMSA bound probe runs differently from free probe, usually more slowly.)

One may read the stoichiometry N as a count of units in the complex or per binding partner.

Regarding “purified vaccine protein with HA from influenza A/PR/8/1934 (H1N1), with the C-terminal foldon trimerization domain (from UniProt P03452)”, the stoichiometry N in assay [1] and in assay [2] was 3 in each case.
